Results taken from the NTF2 design screens of Basanta et al. (2020).

Experiment: protease stability score; higher = more stable; yeast display proteolysis, trypsin and chymotrypsin;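 note: log10 excess protease needed over predicted unfolded state with 0 meaning unfolded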

Sequence	protease stability score
DERHIHELVKNMQTNNFEEIKKQLDENVRVVVGDTVYHGREQASKALEDMKRMADRIRYTRVDFKGNKVRIDVVMNINGHNLKMVITVVVQNGRIKELVFTARNDEVKTRLDHAIR	1.13
DERHNKQWNKELIKIWTDGDHKKFSEMLDKDVQIQVGDKEYHGREEIVRQYKTLMDRADHFEVKRYEVKGNDITIIFTFQVNGRRDQVRVVFVIENGHVKKITMDKK	1.42
DERIKDTVDQMWSAVKNNDPDQMNENFDPNARIEVGDKEVHGRDTLKKWQDTQNKRSNKDMESVSVKVDGDKVDIEAESKFTNNGQPHTNKMTASARLENGRFKEVHIDSRK	-0.513
DERIRKEHTKRLKAEQTGDPKSAHDMADENVRVKVGDKDLTGMDNIVKTIHEEKKDQRNQLDVHSIELHGEKVKIEMQVVIEHNGRPHKTEQYLVFRADNGKLKRMEQHDSG	0.023
DERKAEHWLDQLAQMLRTGDESHVARLMDENVNVVIGDQRFHGSDEARKAIRQLKERIDHLEVKDMKNEGNKMVVKAVADVNGRTHHLDVQMEFKNGRITRASFDPTAIKQAEG	1.14
DERKAEQNARDLAQALITGDPKRVMDLADENAEVQYGDKTYSGRERLDEVVRSFRRAVDHVDVDDIKEKGDHLRIKMTIQHNGQTRQVTLDIRVKNGKAEQIKFDFTDKDWYRRAIK	0.344
DERKAVKHLNTMMRLINTGNPSEAADQADKDVKVHIGDKDVHGRERASDLIKKLRDRVDTIKVKSIEERPNHLSAKIDLEHNGRTHTVVFIIHAENGKVTSMSVKTD	-0.349
DERKEAKEFADRIVKIIQTNNQDELEKNADPDVRVDVGDKQVHGREQLQDELKKLRTRADHVEVKIQDFKVHNGSVTVQMTIVYVVNGQKHKDERVYHAEIHNGRVKLKSARQK	0.767
DERKEAKKWLDRLNKALHTGDSDKLKDMVDKDVRFNIGDKEIHGREQYVKHVQTRAEQIDDVQIHIHSIHVSGDEIVLTYHVVYNVNGRQESDVFNLVMVKNNGRLVVRSVTKG	-0.012
DERKEMQKHFDRFVTALRENNPDQLREMADPDAKVRIGDKTLHGRDEVVHYLQLLAERADHISFDVKQFDVHNGVAHVDLRMRFTVNGQERHKDMIFVLNEVNGTVVIVQVQDK	1.72
DERKIEHAQRILKHNDKHKLQNLFDKNARLEIGDTTFTGRERAQHWARRLYQQADHFEVKSVDNNPNDLTVELVVRVNGHDIHFQFRFRIKNGRITSFQVDYTDEDDERKMKDVDR	0.369
DERKKDRMRELFEAWKTGDEHTAEKMLDKDAKIDVGDHRVQGREQHSTDVRRRKEEIRLRVDIDSIHIHNGRVSVEYKEENNHNGKPDTKNARVDFNMHNGRVQEQKQSNES	-0.35
DERKKVEDVARHWVEAFKEGDKDRLTSLMDENVTVKVGDKQVHGSEELLEDMTNKIKQHDHVDAKILSVTFHGDEAEVDVEVRLNHNGKNRHDRYVMVMRVHNGTLRLKKLTQK	1.24
DERKLATRHAHTLDRILRTGDEERYVDMADKDVKFDVGDRKYKGRHELHKLAKEEQKKADHLQLNYKHITAHNGRVDMDVVVVQVHNGQKRQTNVRYSEEIHNGNVIVQSATEK	-0.355
DERKQENVAKRVIRALQTGDSDMMERLVDPNAEVRYGDKRLRGREELREFVTTFKRAVDHLSFDRFEVHNGRAVANAKLNVNGRVMHVRIIVNFHDGRVTHIQIDVTDESQATRARS	0.643
DERKQHEVAEKVAKNFVDGNPSEFVKNMDPNAEVVIGDKTVTGREDIHRLVKDFHDKIDHIELKDLKVKNGRIEIIFQADNNGHKRQYRADVKANNGRMTTFEVREQ	0.927
DERKRAEKALNEWQRMWKYGNEEDFQKLADENVHFKYGDKTYRGREKMRKWVKEVLDSVDHVEVRIVSLHVRGDKITVRIRIYMEHNGRRTSFEYTMQLVDNNGHIVIVRFEQN	0.203
DERKRAKKALDDLKHAMHSNDPDKQKELMDENVELKYGDRHVNGREQANQHAEEHFERADHLDQKIQTWDIHNGKVSVTFTMTIEFNGRRENIQVQVTFDTVDGRLRIRTAREK	0.525
DERKRATEIAEQIQTILRTGNPKDMRRMADEDVKVDVGDQRIHGRDQLATTLHKLRKRADHIDIKIVSVNAQGDKFVVRQRVRETVNGRVRTFEFVMVLRVHNGREVVKSRHQS	0.225
DERKSAENFFHTLVKVMETGDEDKARKMFDENADAEVGDTEYHGREQLSKYMMTLVKNIDHIRLDLRDMHIEGDKIDIHADVEYRVNGQRTTNKLTVDVEIDNGRNKAQDIKFK	0.214
